# Experimental data from patent US20060264369, “Aptamers to von Willebrand Factor and their use as thrombotic disease therapeutics” (published 2006).
# What was measured:
# [1] = molecular target: von Willebrand factor A1 domain (human) (Homo sapiens, UniProt P04275 SEQ:13-246); assay: filter; 100 nM protein
# Description: When a significant positive ratio of binding of RNA in the presence of human or rabbit vWF A1 domain (SEQ ID NOS […] and 6, respectively) versus in the absence of protein was seen, the pools were cloned using the TOPO TA cloning kit (Invitrogen Cat.# 45-0641, Carlsbad, Calif.) according to the manufacturer's instructions. Round 9 and 12 pool templates were cloned and sequenced (185 total sequences), producing 78 unique clones within 3 sequence families. All unique clones were transcribed, desalted, 5-³²P end-labeled, and assayed in a 3-point dot blot screen (no protein target control, 100 nM human vWF A1 domain (SEQ ID NO 5), or 100 nM rabbit vWF A1 domain (SEQ ID NO 6). The data are presented in the third and fourth columns of Table 9 below as the ratio of the fraction of the aptamer bound to the nitrocellulose in the presence of the target protein to the fraction of aptamer bound in the absence of the target protein. Of the three sequence families, members of Family #1 and # 2 and two individual, non-family aptamers, bound to both human vWF domain A1 (SEQ ID NO 5) and rabbit vWF domain A1 (SEQ ID NO 6).
# [2] = molecular target: von Willebrand factor full length (Homo sapiens, UniProt P04275 SEQ:764-2813); assay: filter; 54% bound at 100 nM; conditions: tags: Calbiochem 681300
# Procedure: For KD determination, chemically synthesized aptamers were purified using denaturing polyacrylamide gel electrophoresis, 5′end labeled with γ-³²P ATP and were tested for direct binding to full length human vWF (Calbiochem Cat.# 681300, La Jolla, Calif.). An 8 point protein titration was used in the dot blot binding assay (100 nM, 30 nM, 10 nM, 3 nM, 1 nM, 300 pM, 100 pM, 0 pM)) in 1× Dulbecco's PBS containing […] (final volume of 50 uL) for 30 minutes at room temperature. KD values were calculated by fitting the equation y=(max/(1+K/protein))+yint using KaleidaGraph (KaleidaGraph v. 3.51, Synergy Software).
binder,measurement,setting,value
"AMX203.F9 (mixed, ribo purines, deoxy pyrimidines) DNA: GGAGCGCACTCAGCCACTGAAGGGTAAGGACGAGGAGGGTATACAGTGTGCGCGTGTATTTCGACCTCTCTGCTAGC",binding signal,[1],1.45 ratio to no protein
"GGCGTGCAGTGCCUTCGGCCGTGCGGTGCCTCCGTCACGCC (ssDNA, 2'-OMe at 14 (mU); 3'-idT) [ARC1207]",Kd,[2],2 nM
